Data from patent US20040038882A1, “Sgk2 and sgk3 used as diagnostic and therapeutic targets” (priority 2000, published 2004).

B1: hsgk3: human serum-and-glucocorticoid-dependent kinase 3, coexpressed in oocytes by mRNA injection (protein, UniProt Q96BR1 1-496, looked up)
Serine/threonine-protein …: MQRDHTMDYKESCPSVSIPSSDEHREKKKRFTVYKVLVSVGRSEWFVFRRYAEFDKLYNTLKKQFPAMALKIPAKRIFGDNFDPDFIKQRRAGLNEFIQNLVRYPELYNHPDVRAFLQMDSPKHQSDPSEDEDERSSQKLHSTSQNINLGPSGNPHAKPTDFDFLKVIGKGSFGKVLLAKRKLDGKFYAVKVLQKKIVLNRKEQKHIMAERNVLLKNVKHPFLVGLHYSFQTTEKLYFVLDFVNGGELFFHLQRERSFPEHRARFYAAEIASALGYLHSIKIVYRDLKPENILLDSVGHVVLTDFGLCKEGIAISDTTTTFCGTPEYLAPEVIRKQPYDNTVDWWCLGAVLYEMLYGLPPFYCRDVAEMYDNILHKPLSLRPGVSLTAWSILEELLEKDRQNRLGAKEDFLEIQNHPFFESLSWADLVQKKIPPPFNPNVAGPDDIRNFDTAFTEETVPYSVCVSSDYSIVNASVLEADDAFVGFSYAPPSEDLFL
B2: hsgk1: human serum-and-glucocorticoid-dependent kinase 1, coexpressed in oocytes by mRNA injection (protein, UniProt O00141 1-431, looked up)
Serine/threonine-protein …: MTVKTEAAKGTLTYSRMRGMVAILIAFMKQRRMGLNDFIQKIANNSYACKHPEVQSILKISQPQEPELMNANPSPPPSPSQQINLGPSSNPHAKPSDFHFLKVIGKGSFGKVLLARHKAEEVFYAVKVLQKKAILKKKEEKHIMSERNVLLKNVKHPFLVGLHFSFQTADKLYFVLDYINGGELFYHLQRERCFLEPRARFYAAEIASALGYLHSLNIVYRDLKPENILLDSQGHIVLTDFGLCKENIEHNSTTSTFCGTPEYLAPEVLHKQPYDRTVDWWCLGAVLYEMLYGLPPFYSRNTAEMYDNILNKPLQLKPNITNSARHLLEGLLQKDRTKRLGAKDDFMEIKSHVFFSLINWDDLINKKITPPFNPNVSGPNDLRHFDPEFTEEPVPNSIGKSPDSVLVTASVKEAAEAFLGFSYAPPTDSFL
B3: hsgk2: human serum-and-glucocorticoid-dependent kinase 2, coexpressed in oocytes by mRNA injection (protein, UniProt Q9HBY8 1-367, looked up)
Serine/threonine-protein …: MNSSPAGTPSPQPSRANGNINLGPSANPNAQPTDFDFLKVIGKGNYGKVLLAKRKSDGAFYAVKVLQKKSILKKKEQSHIMAERSVLLKNVRHPFLVGLRYSFQTPEKLYFVLDYVNGGELFFHLQRERRFLEPRARFYAAEVASAIGYLHSLNIIYRDLKPENILLDCQGHVVLTDFGLCKEGVEPEDTTSTFCGTPEYLAPEVLRKEPYDRAVDWWCLGAVLYEMLHGLPPFYSQDVSQMYENILHQPLQIPGGRTVAACDLLQSLLHKDQRQRLGSKADFLEIKNHVFFSPINWDDLYHKRLTPPFNPNVTGPADLKHFDPEFTQEAVSKSIGCTPDTVASSSGASSAFLGFSYAPEDDDILDC

What was measured:
[1] = system: epithelial Na^+-channel, α-ENaC, β-ENaC, and γ-ENaC (rENaC); experiment: Dual-electrode voltage clip, amiloride-sensitive Na+-current in oocytes expressing ENaC; type: cell-based, Xenopus laevis; conditions: for activation of the Na^+-channel rENaC by hsgk2 and hsgk3: kinase inhibitor; for activation of the Na^+-channel rENaC by hsgk2 and hsgk3 / amiloride-inhibitable current, Iamil, through the Na^+-channel, rENaC: FIG. 1; for amiloride-inhibitable current, Iamil, through the Na^+-channel, rENaC: coexpression with kinase; for Na^+-current (INa): oocytes injected with α-ENaC, β-ENaC, and γ-ENaC plus kinase, mean ± SEM, n=7
Experimental: (§1) Each of the oocytes involved was injected with 1 ng cRNA from α-ENaC, β-ENaC, and γ-ENaC, Kv1.3, or minK, both with and without simultaneous injection of the kinases hsgk1, hsgk2, and hsgk3. Dual-electrode voltage-clip and current-clip experiments could be undertaken 2 to 4 days following injection. Na^+-currents (in the case of ENaC) and K^+-currents (in the case of Kv1.3 and minK) were filtered at 10 Hz and recorded using a recorder. The experiments were normally conducted on the second day following cRNA-injection. The bath solution contained 96 mM NaCl, 2 mM KCl, 1.8 mM CaCl2, 1 mM MgCl2, and 5 mM HEPES at a pH of 7.5 and a holding potential of −80 mV. In all experiments, bath pH was set by titration with HCl or NaOH. Bath-liquid flow rate was set to 20 ml/min, which provided for a complete change of solution within 10 to 15 seconds. All data were output in the form of arithmetic means±SEM.
(§2) In order to investigate the effects of hsgk1, hsgk2, or hsgk3, the mRNA of the respective kinases, together with the mRNA of the epithelial Na^+-channel, α-ENaC, β-ENaC, and γ-ENaC, or the voltage-dependent K^+-channel, Kv1.3, or the minK-channel, were injected into Xenopus oocytes and the amiloride-sensitive Na^+-current, INa, and voltage-activated K^+-current, IK, subsequently determined.

hsgk2 and hsgk3 = experiment: Kinase inhibitors on hsgk stimulation of channel activity in oocytes; type: cell-based, Xenopus laevis; conditions: protein-kinase inhibitor added; Table 1, FIGS. 1 and 2
Experimental: as §1, §2

[2] = system: human embryonic kidney cells (HEK-cells); experiment: Survival of HEK-cells after extraction of fetal calf serum; type: cell-based; conditions: FCS extracted, FIG. 3
Experimental: According to FIG. 3, extracting fetal calf serum (FCS) from human embryonic kidney cells (HEK-cells) (Lewis, et al (1984); Phillips, et al (1982)) reduces the total number of cells present due to cell mortality, as may be seen by comparing the black bars to the dotted bars, where FIG. 3 depicts the situations after 24 hours and 48 hours, respectively. This reduction is lessened by the insulin-like growth factor (IGF1), represented by the white bars. The effect of IGF1 is eliminated by the simultaneous inhibition of K^+-channels using margatoxin (MT), represented by the hatched bars. […] The activation of the Kv1.3-channel mediated by sgk2 and sgk3 thus has an antiapoptotic effect, and lack of an sgk2-effect and sgk3-effect would thus cause an increase in cell mortality, as occurs in the case of, for example, neurodegeneration. Conversely, activators of sgk2 and sgk3 may be employed for preventing apoptotic cell death in the case of neurodegeneration. Since Kv1.3 also plays a major role in regulating lymphocyte proliferation and lymphocyte function, inhibitors or activators of these kinases may be employed for affecting the immune system in the case of, e.g., autoimmune diseases or immune deficiency.

minK-channel = experiment: Dual-electrode voltage clip, K+-current in oocytes expressing minK; type: cell-based, Xenopus laevis; conditions: oocytes injected with minK plus kinase; mean ± SEM, n=7
Experimental: as §1, §2

[3] = system: voltage-dependent K^+-channel, Kv1.3; experiment: Dual-electrode voltage clip, voltage-activated K+-current in oocytes expressing Kv1.3; type: cell-based, Xenopus laevis; conditions: oocytes injected with Kv1.3 plus kinase; mean ± SEM, n=7
Experimental: as §1, §2

Row | Molecule | K^+-current (IK), MinK (minK-channel) | K^+-current (IK), Kv1.3 [3] | Na^+-current (INa) [1] | further results
1 | CN[C@@H]1C[C@H]2O[C@@](C)([C@@H]1OC)n1c3ccccc3c3c4c(c5c6ccccc6n2c5c31)C(=O)NC4 [staurosporine, reference compound] | – | – | – | activation of the Na^+-channel rENaC by hsgk2 and hsgk3 [1]: inhibit activation of the Na^+-channel; stimulating effects of hsgk on ENaC-activity, Kv1.3-activity and minK-activity (hsgk2 and hsgk3): totally prevented
2 | IGF1: insulin-like growth factor | – | – | – | reduction of total number of cells due to cell mortality ([2]; after 24 hours and 48 hours): lessened
3 | COc1ccc2c(c[n+](C)c3c4cc5c(cc4ccc23)OCO5)c1OC [chelerythrine, reference compound] | – | – | – | activation of the Na^+-channel rENaC by hsgk2 and hsgk3 [1]: inhibit activation of the Na^+-channel; stimulating effects of hsgk on ENaC-activity, Kv1.3-activity and minK-activity (hsgk2 and hsgk3): totally prevented
4 | margatoxin (TIINVKCTSPKQCLPPCKAQFGQSAGAKCMNGKCKCYPH; UniProt P40755 1-39, looked up) [reference compound] | – | – | – | effect of IGF1 on cell-number reduction ([2]; IGF1 plus simultaneous inhibition of K^+-channels, 24 and 48 hours): eliminated
5 | B1 | 1.1 ± 0.11 μA | 8.2 ± 0.7 μA | 4.5 ± 0.8 μA | amiloride-inhibitable current, Iamil, through the Na^+-channel, rENaC [1]: increased significantly
6 | B2 | 1.16 ± 0.11 μA | 8.4 ± 1.8 μA | 5.9 ± 1.0 μA | –
7 | B3 | 0.97 ± 0.1 μA | 6.5 ± 0.6 μA | 9.4 ± 1.7 μA | amiloride-inhibitable current, Iamil, through the Na^+-channel, rENaC [1]: increased significantly
